{"source": "patent US7294706", "target": "FGFR2 over-expressed on CHO cells (CHO-FGFR2) and on 32D cells (32D-FGFR2) (UniProt P21803)", "assay": "competition of unlabeled protein with 125I-FGF4 (Gly79-Leu206) for CHO-FGFR2 cells, +heparin"}
{"substance": "FGF4 (Gly79-Leu206) N89A/K198A/K183A/K188A (from UniProt P08620 79-206) (ligand)", "values": [{"measurement": "IC50 mutant/IC50 wild-type (ratio (IC50 mutant/IC50 wild-type))", "result": "> 1000"}]}
